Data as given in patent publication US20240287172A1 (SCIRHOM, published 2024).

Target: T1, hiR2-FL-G563D-T7 (human, UniProt Q6PJF5 1-856)
T1 sequence: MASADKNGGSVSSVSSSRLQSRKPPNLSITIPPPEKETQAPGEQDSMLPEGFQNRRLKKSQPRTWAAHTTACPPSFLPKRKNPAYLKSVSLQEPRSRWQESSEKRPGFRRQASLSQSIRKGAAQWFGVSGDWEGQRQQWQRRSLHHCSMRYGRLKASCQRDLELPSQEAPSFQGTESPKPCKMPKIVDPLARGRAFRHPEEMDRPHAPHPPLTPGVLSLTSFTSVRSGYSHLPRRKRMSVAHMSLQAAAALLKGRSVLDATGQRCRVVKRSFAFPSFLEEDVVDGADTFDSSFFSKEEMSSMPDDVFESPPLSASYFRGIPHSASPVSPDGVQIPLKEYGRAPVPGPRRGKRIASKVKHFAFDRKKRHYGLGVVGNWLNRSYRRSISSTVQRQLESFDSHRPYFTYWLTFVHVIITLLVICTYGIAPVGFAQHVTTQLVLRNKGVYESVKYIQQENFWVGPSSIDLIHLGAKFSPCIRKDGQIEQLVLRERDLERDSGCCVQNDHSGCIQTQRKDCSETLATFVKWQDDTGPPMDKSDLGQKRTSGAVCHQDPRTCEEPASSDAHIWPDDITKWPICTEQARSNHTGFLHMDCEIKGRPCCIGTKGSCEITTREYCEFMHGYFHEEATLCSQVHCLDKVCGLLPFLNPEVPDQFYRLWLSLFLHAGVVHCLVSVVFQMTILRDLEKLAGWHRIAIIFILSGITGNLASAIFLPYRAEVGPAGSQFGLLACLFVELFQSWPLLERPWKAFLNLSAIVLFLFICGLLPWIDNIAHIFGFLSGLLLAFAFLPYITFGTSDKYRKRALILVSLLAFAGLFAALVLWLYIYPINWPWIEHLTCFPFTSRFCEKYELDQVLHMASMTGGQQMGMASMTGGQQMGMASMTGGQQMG
Assay: FACS, MEF-DKO cells, 3 µg/ml
In short: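 MEF-DKO cells expressing T7-tagged full-length hiR2 point mutants were stained on ice for 1 h with purified antibodies at 3 μg/ml in FACS buffer. Detection used PE-conjugated goat anti-mouse IgG F(ab′)2 (1:100, 1 h on ice), read by flow cytometry; buffer-only wells served as controls.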

B1: antibody 50 (antibody, V domains shown)
VH: QVQLQQSGAELVRPGASVKVSCKASGYAFSNYLIEWVKQRPGQGLEWIGVINPGSGFTKYNEKFKGKATLTADKSSSTAYMQLSSLTSEDSAVYFCARGLYRAMDYWGQGTSVTVSS
VL: DIQMTQSPASQSASLGESVTITCLASQTIGTWLAWYQQKPGKSPQLLIYAAASLADGVPSRFSGGGSGTKFSFKISSLQAEDFVNYYCQQIYSTPYTFGGGTKLEIK
notes: mouse IgG, kappa light chain; also called clone #50; purified antibody 50
How did the “loss of binding vs wild type” value turn out when B1 was run?
Its value is no less than 30%.
